Results from patent US20220288204A1, “DOSAGE AND ADMINISTRATION OF ANTI-ERBB3 (HER3) MONOCLONAL ANTIBODIES TO TREAT TUMORS ASSOCIATED WITH NEUREGULIN 1 (NRG1) GENE FUSIONS” (ELEVATION ONCOLOGY, INC., priority 2021, published 2022).

What was measured:
[1] = test system: KRAS wt pancreatic ductal adenocarcinoma with ATP1B1-NRG1 gene fusion; assay: Compassionate access case, MoST program; format: in vivo, human
Method: FIGS. 10A-10B are representative computed tomography (CT) images of a liver metastasis in a patient with KRAS WT pancreatic cancer that harbors an ATP1B1-NRG1 gene fusion. The patient was treated with seribantumab.
In brief, patients with advanced solid tumors of any histology undergo molecular screening. Genomic alterations are reviewed at molecular tumor boards to identify appropriate biomarker-matched therapeutic sub-studies. Seven GI cancer patients with durable clinical benefit were identified by case review, including a patient with KRAS WT pancreatic cancer harboring an ATP1B1-NRG1 gene fusion. Neuregulin 1 (NRG1) gene fusion proteins are an important oncogenic driver, enriched amongst KRAS wild-type PDAC (8-10%) (Aguirre A J., Clin. Cancer Res. 2019 August; 25(15)). NRG1 is the predominant ligand of ERBB3. These fusion proteins drive tumor progression through aberrant ERBB3 activation. […] The patient had previously exhausted available therapies and had been treated as follows: (1) October 2019 to January 2020, FOLFIRINOX, (2) January 2020 to June 2020, FOLFIRI, (3) June 2020 to August 2020, Gemcitabine/Abraxane, (4) August 2020 to December 2020, FOLFIRI.

CH-17-0068 PDX tumors = assay: Intrahepatic cholangiocarcinoma PDX model (RBPMS-NRG1); format: in vivo, mice; details: monotherapy seribantumab 5 mg and 10 mg per dose BIW vs afatinib 5 mg/kg QD
Method: Representative H&E-stained CH-17-0068 PDX tumor (FIG. 9A). Genomic alterations identified by RNAseq and corresponding investigational targeted therapies (FIG. 9B). […] Afatinib (5 mg/kg QD) or AG-120 (isocitrate dehydrogenase [IDH] inhibitor, 150 mg/kg twice daily [BID]) were then added to the indicated groups. Results represent the mean±SEM. Change in the volume of individual tumors on day 30 (FIG. 9D) or at the end of the study (FIG. 9E).
Models of isogenic pancreatic cancer cells with NRG1 fusions by lentiviral-mediated cDNA expression of ATP1B1-NRG1 and SLC3A2-NRG1 fusions in immortalized human pancreatic ductal cells (H6c7) were developed. […] Western blotting analysis was used to evaluate protein phosphorylation and expression. The presence of NRG1 fusions was confirmed by reverse transcription polymerase chain reaction (RT-PCR) and next-generation sequencing (NGS).

B1: seribantumab: anti-ERBB3 (HER3) fully human monoclonal antibody; heavy and light chains SEQ ID NOs: 12 and 13 (antibody)
heavy: EVQLLESGGGLVQPGGSLRLSCAASGFTFSHYVMAWVRQAPGKGLEWVSSISSSGGWTLYADSVKGRFTISRDNSKNTLYLQMNSLRAEDTAVYYCTRGLKMATIFDYWGQGTLVTVSSASTKGPSVFPLAPCSRSTSESTAALGCLVKDYFPEPVTVSWNSGALTSGVHTFPAVLQSSGLYSLSSVVTVPSSNFGTQTYTCNVDHKPSNTKVDKTVERKCCVECPPCPAPPVAGPSVFLFPPKPKDTLMISRTPEVTCVVVDVSHEDPEVQFNWYVDGVEVHNAKTKPREEQFNSTFRVVSVLTVVHQDWLNGKEYKCKVSNKGLPAPIEKTISKTKGQPREPQVYTLPPSREEMTKNQVSLTCLVKGFYPSDIAVEWESNGQPENNYKTTPPMLDSDGSFFLYSKLTVDKSRWQQGNVFSCSVMHEALHNHYTQKSLSLSPGK
light: QSALTQPASVSGSPGQSITISCTGTSSDVGSYNVVSWYQQHPGKAPKLIIYEVSQRPSGVSNRFSGSKSGNTASLTISGLQTEDEADYYCCSYAGSSIFVIFGGGTKVTVLGQPKAAPSVTLFPPSSEELQANKATLVCLVSDFYPGAVTVAWKADGSPVKVGVETTKPSKQSNNKYAASSYLSLTPEQWKSHRSYSCRVTHEGSTVEKTVAPAECS
- liver metastasis NTL1 liver seg 8 on CT ([1]; June 2021, 26×26 mm before seribantumab): resolved
- duration of ongoing treatment at data cutoff ([1]; one patient): ≥ 8 months
- tumor response ([1]; person, treated from December 2020): partial response
- efficacy compared with afatinib (CH-17-0068 PDX tumors): equally effective as afatinib
